Positions count from the first letter of the chain named. Names may count otherwise.
Tests used:
cross-linking = target: the molecule itself; test: cross-linking
crystal structure = target: the molecule itself; test: crystal structure
cryo-EM structure = target: the molecule itself; test: cryo-EM structure

B1: NaAtm1 A527C (natural protein)
chain: MPPETATNPKDARHDGWQTLKRFLPYLWPADNAVLRRRVVGAILMVLLGKATTLALPFAYKKAVDAMTLGGGAQPALTVALAFVLAYALGRFSGVLFDNLRNIVFERVGQDATRHLAENVFARLHKLSLRFHLARRTGEVTKVIERGTKSIDTMLYFLLFNIAPTVIELTAVIVIFWLNFGLGLVTATILAVIAYVWTTRTITEWRTHLREKMNRLDGQALARAVDSLLNYETVKYFGAESREEARYASAARAYADAAVKSENSLGLLNIAQALIVNLLMAGAMAWTVYGWSQGKLTVGDLVFVNTYLTQLFRPLDMLGMVYRTIRQGLIDMAEMFRLIDTHIEVADVPNAPALVVNRPSVTFDNVVFGYDRDREILHGLSFEVAAGSRVAIVGPSGAGKSTIARLLFRFYDPWEGRILIDGQDIAHVTQTSLRAALGIVPQDSVLFNDTIGYNIAYGRDGASRAEVDAAAKGAAIADFIARLPQGYDTEVGERGLKLSGGEKQRVAIARTLVKNPPILLFDEATSCLDTRTEQDILSTMRAVASHRTTISIAHRLSTIADSDTILVLDQGRLAEQGSHLDLLRRDGLYAEMWARQAAESAEVSEAAE
modifications: disulfide between the two equivalent C527 residues of the dimer (crosslinking yield ~70%)
crosslinking yield (cross-linking): ~70%

B2: NaAtm1 E523Q (ATP-hydrolysis-deficient Walker-B mutant) (natural protein)
chain: B1 chain with E523Q, C527A
binding result (crystal structure): binds

B3: NaAtm1 (ABC transporter of mitochondria homolog from Novosphingobium aromaticivorans), wild type (natural protein)
chain: B1 chain with C527A
binding result (cryo-EM structure): binds

B4: NaAtm1 S526C (natural protein)
chain: B1 chain with S526C, C527A
modifications: disulfide between the two equivalent C526 residues of the dimer (crosslinking yield ~70%)
crosslinking yield (cross-linking): ~70%
